The text below walks through data of patent US20210206841A1 (RESEARCH INSTITUTE AT NATIONWIDE CHILDREN S HOSPITAL, published 2021).

As a reminder, the EC50 is the concentration that produces a half-maximal response. Read a low EC50 as an effect from little substance. For orientation: Kd means the concentration at which binding is half-saturated. A higher Kd goes with lower affinity. For orientation: koff means the first-order rate constant of dissociation. Lower therefore signals a long-lived complex. As a reminder, the kon is a measure of how fast the partners come together. Low readings indicate slow association, high ones fast association.

First the molecules themselves.
T1: tail-chimeric peptide IhfA3-IhfB2NTHI (nontypeable Haemophilus influenzae …)
T1 construct: also called IHF(NTHI) tail chimeric peptide; IHFNTHI tail chimeric peptide
T1 peptide: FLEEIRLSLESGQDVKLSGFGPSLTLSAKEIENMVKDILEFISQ

T2: native IHFNTHI (integration host factor of nontypeable Haemophilus influenzae) (nontypeable Haemophilus influenzae …, UniProt P43723 1-96; P43724 1-94)
T2 construct: also called NTHI IHF
T2 sequence 1: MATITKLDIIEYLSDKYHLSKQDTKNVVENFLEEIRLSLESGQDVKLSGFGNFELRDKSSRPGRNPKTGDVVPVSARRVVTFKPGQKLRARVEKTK
T2 sequence 2: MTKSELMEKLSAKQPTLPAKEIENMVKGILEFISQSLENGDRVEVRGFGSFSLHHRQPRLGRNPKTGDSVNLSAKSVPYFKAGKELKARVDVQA

B1: humanized anti-tail monoclonal antibody, heavy chain SEQ ID NO: 4 and light chain SEQ ID NO: 10 (antibody, V domains shown)
VH: EVQLVESGGGLVKPGGSLRLSCAASGFTFSRYGMSWVRQAPGKGLEWVATISSGGSYTYYTDSVKGRFTISRDNAKNSLYLQMNSLRAEDTAVYYCERHGGDGYWYFDVWGQGTMVTVSS
VL: DIQMTQSPSSLSASVGDRVTITCRASQDISNYLNWYQQKPGKAVKLLIYYTSRLHSGVPSRFSGSGSGTDYTLTISSLQPEDFATYFCQQGNPLRTFGGGTKVEIKR
notes: also called HuTailMab; TP-21958
B2: humanized anti-tail monoclonal antibody, heavy chain SEQ ID NO: 5 and light chain SEQ ID NO: 10 (antibody, V domains shown)
VH: B1 VH with A49S
VL: B1 VL
notes: also called H10214 (11E7.C7 Humanized HC2) + L10213 (11E7.C7 Humanized LC1)
B3: humanized anti-tail monoclonal antibody, heavy chain SEQ ID NO: 6 and light chain SEQ ID NO: 10 (antibody, V domains shown)
VH: B1 VH with K13Q, G16R, A23T, S78I, R87K, A88T
VL: B1 VL
notes: also called H10215 (11E7.C7 Humanized HC3) + L10213 (11E7.C7 Humanized LC1)
B4: humanized anti-tail monoclonal antibody, heavy chain SEQ ID NO: 5 and light chain SEQ ID NO: 11 (antibody, V domains shown)
VH: B1 VH with A49S
VL: B1 VL with F87Y
notes: also called H10214 (11E7.C7 Humanized HC2) + L10214 (11E7.C7 Humanized LC2)
B5: humanized anti-tail monoclonal antibody, heavy chain SEQ ID NO: 4 and light chain SEQ ID NO: 11 (antibody, V domains shown)
VH: B1 VH
VL: B1 VL with F87Y
notes: also called H10213 (11E7.C7 Humanized HC1) + L10214 (11E7.C7 Humanized LC2)
B6: humanized anti-tail monoclonal antibody, heavy chain SEQ ID NO: 6 and light chain SEQ ID NO: 11 (antibody, V domains shown)
VH: B1 VH with K13Q, G16R, A23T, S78I, R87K, A88T
VL: B1 VL with F87Y
notes: also called H10215 (11E7.C7 Humanized HC3) + L10214 (11E7.C7 Humanized LC2)

Changes are numbered by the printed parent chain.

The target of the first assay is T1, tail-chimeric peptide IhfA3-IhfB2NTHI. Nature of the assay: direct ELISA #1, peptide coated (curves not reaching equilibrium). (In general: In an ELISA, binding on a coated surface is turned into a signal by an enzyme label.)
As for B1, the EC50 amounted to 0.01 µg/mL.

In the case of B2, the concentration for a half-maximal effect (EC50) amounted to 0.007 µg/mL.

Regarding B3, the midpoint of the response, the EC50, lay at 0.013 µg/mL.

Take B4: the EC50 turned out to be 0.014 µg/mL.

Molecule B5 had an EC50 of 0.011 µg/mL.

B6 displayed an EC50 of 0.011 µg/mL.

A further assay deals with T2, native IHFNTHI (integration host factor …). Nature of the assay: SPR Biacore 3000, HuMab immobilized, IHFNTHI as analyte. Background: Surface plasmon resonance follows binding to a sensor surface in real time, without labels.
For the molecule B1, the Kd was approximately 5.6 nM, the koff was found to be 0.00043 s⁻¹ and the kon is 77000 M⁻¹ s⁻¹.

The molecule B2 showed a Kd of approximately 3.6 nM, a koff of 0.00057 s⁻¹ and a kon of 160000 M⁻¹ s⁻¹.

As for B3, the dissociation constant (Kd) is 18 nM, the koff is 0.00073 s⁻¹ and the kon was 25000 M⁻¹ s⁻¹.

Regarding B4, the Kd is approximately 4.4 nM, the koff is 0.00061 s⁻¹ and the kon came out at 140000 M⁻¹ s⁻¹.

In turn, B5 returned a Kd of approximately 5.3 nM, a koff of 0.00053 s⁻¹ and a kon of 100000 M⁻¹ s⁻¹.

Molecule B6 gave a Kd of approximately 14.8 nM, a koff of 0.00068 s⁻¹ and a kon of 46000 M⁻¹ s⁻¹.

The target in another assay is T1, tail-chimeric peptide IhfA3-IhfB2NTHI. The assay can be described thus: SPR Biacore 3000, peptide immobilized, HuMab as analyte.
Molecule B1 showed a Kd of 4.3 nM, a koff of 0.00064 s⁻¹ and a kon of 150000 M⁻¹ s⁻¹.

In the case of B2, the Kd is 6.1 nM, the koff came to 0.00082 s⁻¹ and the kon amounted to 130000 M⁻¹ s⁻¹.

Regarding B3, the Kd amounted to 2.5 nM, the koff was 0.00046 s⁻¹ and the kon turned out to be 180000 M⁻¹ s⁻¹.

Take B4: binding was put at a Kd of 6.2 nM, the koff stood at 0.00076 s⁻¹ and the kon came to 120000 M⁻¹ s⁻¹.

In turn, B5 displayed a Kd of 4.9 nM, a koff of 0.00068 s⁻¹ and a kon of 140000 M⁻¹ s⁻¹.

For B6, the Kd turned out to be 1 nM, the koff came out at 0.00016 s⁻¹ and the kon came to 160000 M⁻¹ s⁻¹.

For another assay the target is unchanged. The assay can be described thus: SPR Biacore 3000, HuMab immobilized, peptide as analyte.
Regarding B1, the Kd amounted to 29.6 nM, the koff amounted to 0.00033 s⁻¹ and the kon is 11000 M⁻¹ s⁻¹.

B2 had a Kd of 60 nM, a koff of 0.00029 s⁻¹ and a kon of 4800 M⁻¹ s⁻¹.

B3 displayed a Kd of 72 nM, a koff of 0.0013 s⁻¹ and a kon of 18000 M⁻¹ s⁻¹.

For the molecule B4, the affinity, expressed as Kd, was 47 nM; the koff was determined as 0.00027 s⁻¹; the on-rate constant (kon) stood at 5700 M⁻¹ s⁻¹.

In turn, B5 returned a Kd of 62.2 nM, a koff of 0.00027 s⁻¹ and a kon of approximately 4300 M⁻¹ s⁻¹.

B6 gave a Kd of 67 nM, an off-rate constant (koff) of 0.0013 s⁻¹ and a kon of 33000 M⁻¹ s⁻¹.

Another assay shares this target. The assay can be described thus: direct ELISA #2, peptide coated (curves reaching equilibrium).
Turning to B1, the EC50 stood at 0.0427 µg/mL.

In turn, B2 yielded an EC50 of 0.0367 µg/mL.

The molecule B3 displayed an EC50 of 0.0274 µg/mL.

For B4, the EC50 stood at 0.0339 µg/mL.

B5 registered an EC50 of 0.0408 µg/mL.

B6 returned an EC50 of 0.028 µg/mL.
